{"source": "patent US11358994B2", "about": "“Fatty acid modified human epidermal growth factor” (Saint Louis University, priority 2017, dated 2022)", "origin": "cited, not measured here", "settings": "species not stated", "data": [{"substance": "hEGF: 6 kD protein made of 53 amino acids (SEQ ID NO: 1)", "values": [{"measurement": "half-life in vivo", "value": "~2", "unit": "min"}]}]}
